Source: US7968692B2, “Elongase genes and uses thereof” (Abbott Laboratories, priority 1998, dated 2011)

Tests used:
[1] = system: S. cerevisiae 334; test: Mouse elongase MELO4 activity in yeast; type: cell-based, Saccharomyces cerevisiae
Description: The construct pRAE-84 was transformed into S. cerevisiae 334 (Hoveland et al., supra) and screened for elongase activity. The negative control strain was S. cerevisiae 334 containing pYX242 vector. The cultures were grown for 42-48 hours at 30° C., in selective media (Ausubel et al., supra), in the presence of 25 μM of GLA, AA, ADA, STA, EPA, or DPA. […] However, there were accumulations of ADA, ω6-tetracosatetraenoic acid (TTA, C24:4n-6), ETA, DPA, and ω3-tetracosapentaenoic acid (TPA, C24:5n-3), respectively (FIG. 56). The n-6 fatty acid substrate AA was converted to ADA, which was subsequently converted to TTA, and the n-3 fatty acid EPA was converted to DPA, which was subsequently converted to TPA. The levels of these fatty acids were 0.64% (ADA), 1.07% (TTA), 1.47% (DPA), and 7.06% (TPA), respectively, of the total fatty acids in the strain containing the pRAE-84 sequence. […] The expression of MELO4 in yeast results in the conversion of C20 and C22 fatty acids to the respective elongated products. The conversion rate of C22 to C24 fatty acids is much greater when the exogenously added substrate is […].
To further confirm the substrate specificity of MELO4 protein (MELO4), the recombinant yeast strain 334(pRAE-84) was grown in minimal media containing 25 μM of saturated, monounsaturated, or polyunsaturated fatty acids. […] When AA was added exogenously, the levels of product fatty acids were 0.5% (ADA) and 0.39% (TTA), and when ADA was added exogenously, the level of product fatty acid was 1.3% (TTA) of the total fatty acids in the strain containing the pRAE-84 sequence. […] MELO4p is also involved in the elongation of GLA to DGLA. The lipid profile of the strain containing the pRAE-84 sequence, in presence of GLA, had 0.43% of DGLA, which represented 14.7% conversion of GLA to DGLA. MELO4p is also involved in the elongation of n-3 PUFAs EPA and DPA (FIG. 53C). […] When EPA was added, the levels of these fatty acids were 1.21% (DPA) and 3.38% (TPA), and when DPA was added, the level of the product fatty acid was 3.09% (TPA) of the total fatty acids in the strain containing the pRAE-84 sequence. […] MELO4p is also involved in the elongation of STA to C22:4n-3. When STA was added, the levels of fatty acids produced by two-carbon elongation were 0.3% ETA and 0.23% C22:4n-3. […] MELO4p also appeared to be involved in the elongation of ALA; however, the small amount of the fatty acid produced by two-carbon elongation (0.16% of ETrA) may not be significant.

[2] = system: S. cerevisiae 334; test: Human elongase HSELO1 activity in yeast; type: cell-based, Saccharomyces cerevisiae
Description: The construct pRAE-58-A1 was transformed into S. cerevisiae 334 (Hoveland et al., supra) and screened for elongase activity. The negative control strain was S. cerevisiae 334 containing pYX242 vector. The cultures were grown for 24 hours at 30° C., in selective media (Ausubel et al., supra), in the presence of 25 μM of GLA or AA. In this study, DGLA or adrenic acid (ADA, 22:4n-6), respectively, was the predicted product of human elongase activity. […] Thus, the human elongase converts both 18 and 20 carbon chain long PUFAs to their respective elongated fatty acids.
To further confirm the substrate specificity of the human elongation enzyme, described above and referred to herein as HSELO1, the recombinant yeast strain 334(pRAE-58-A1) was grown in minimal media containing n-6 fatty acids GLA, AA, or n-3 fatty acids ALA, STA, or EPA. […] The levels of these fatty acids were 7.29% (DGLA), 6.26% (ADA), 6.15% (ETrA), 10.06% (ETA), and 6.66% (DPA), respectively, of the total fatty acids in the strain containing the pRAE-58-A1 sequence.
To confirm this hypothesis, 25 μM of exogenous OA was added as a substrate to the recombinant yeast strain 334(pRAE-58-A1).
To determine whether the substrate concentration affects the conversion of 18 and 20 carbon fatty acids to the respective elongated products, two different concentrations of GLA, AA, and EPA were examined (FIG. 52).
Although the addition of more substrates led to higher percentages of the two carbon elongated products, the overall conversion rate decreased by at least 35%.
To further confirm the substrate specificity of HSELO1p, the recombinant yeast strain 334(pRAE-58-A1) was grown in minimal media containing 25 μM of saturated, monounsaturated, or PUFAs. […] However, this is not an increase in the level of OA compared to the samples where PTA was not added, as OA was 25-31% of the total fatty acids in all samples. […] The levels of these fatty acids were 0.74% (C20:2n-6), 2.46% (DGLA), and 2.14% (ADA), respectively, of the total fatty acids in the lysates of 334(pRAE-58-A1). […] HSELO1p is also involved in the elongation of n-3 PUFAs ALA, STA, and EPA, but not DPA (FIG. 53C). […] The levels of these fatty acids were 1.03% ETrA, 2.24% (ETA), and 3.19% (DPA), respectively, of the total fatty acids in the strain containing the pRAE-58-A1 sequence.

[3] = 25 μM AA added exogenously, FIG. 57B
[4] = 25 μM ADA added exogenously, FIG. 57B
[5] = 25 μM DPA added, second experiment
[6] = 25 μM EPA added, second experiment
[7] = C22 substrate ADA added, 25 μM, FIG. 56
[8] = C22 substrate printed as EPA, 25 μM, FIG. 56

B1: MELO4: mouse PUFA elongation enzyme from brain cDNA (SEQ ID NO:5), expressed in yeast from pRAE-84 (protein, listed as Mus musculus)
chain: MEQLKAFDNEVNAFLDNMFGPRDSRVRGWFLLDSYLPTFILTITYLLSIWLGNKYMKNRPALSLRGILTLYNLAITLLSAYMLVELILSSWEGGYNLQCQNLDSAGEGDVRVAKVLWWYYFSKLVEFLDTIFFVLRKKTNQITFLHVYHHASMFNIWWCVLNWIPCGQSFFGPTLNSFIHILMYSYYGLSVFPSMHKYLWWKKYLTQAQLVQFVLTITHTLSAVVKPCGFPFGCLIFQSSYMMTLVILFLNFYIQTYRKKPVKKELQEKEVKNGFPKAHLIVANGMTDKKAQ
conversion of AA to ADA [1, 3]: 8.7%
conversion of ADA to TTA [1, 3]: 43.8%
level of ADA, of the total fatty acids [1, 3]: 0.5%
level of TTA, of the total fatty acids [1, 3]: 0.39%
conversion of AA to ADA ([1]; 25 μM AA added, FIG. 56): 10.4%
conversion of ADA to TTA ([1]; 25 μM AA added, FIG. 56): 62.6%
level of ADA, of the total fatty acids ([1]; 25 μM AA added, FIG. 56): 0.64%
level of TTA, of the total fatty acids ([1]; 25 μM AA added, FIG. 56): 1.07%
conversion of ADA to TTA [1, 4]: 7.3%
level of TTA, of the total fatty acids [1, 4]: 1.3%
level of ETrA ([1]; 25 μM ALA, may not be significant): 0.16%
conversion of DPA to TPA [1, 5]: 46.4%
level of TPA, of the total fatty acids [1, 5]: 3.09%
conversion of DPA to TPA ([1]; 25 μM EPA added, FIG. 56): 82.8%
conversion of EPA to DPA ([1]; 25 μM EPA added, FIG. 56): 32.7%
level of DPA, of the total fatty acids ([1]; 25 μM EPA added, FIG. 56): 1.47%
level of TPA, of the total fatty acids ([1]; 25 μM EPA added, FIG. 56): 7.06%
conversion of DPA to TPA [1, 6]: 73.6%
conversion of EPA to DPA [1, 6]: 24.0%
level of DPA, of the total fatty acids [1, 6]: 1.21%
level of TPA, of the total fatty acids [1, 6]: 3.38%
elongation of GLA to DGLA ([1]; 25 μM GLA, 42-48 hours at 30° C., FIG. 56): GLA was not elongated
conversion of GLA to DGLA ([1]; 25 μM GLA, FIG. 57B): 14.7%
level of DGLA in lipid profile ([1]; 25 μM GLA, FIG. 57B): 0.43%
conversion of ETA to C22:4n-3 ([1]; 25 μM STA added): 43.4%
conversion of STA to ETA ([1]; 25 μM STA added): 11.1%
level of C22:4n-3 ([1]; 25 μM STA added): 0.23%
level of ETA ([1]; 25 μM STA added): 0.3%
elongation of monounsaturated fatty acids PTA, OA, or EA ([1]; 25 μM substrate): also not involved
elongation of saturated fatty acids PA, SA, ARA, or BA ([1]; 25 μM substrate, FIG. 57A): not involved
conversion of ADA to TTA [1, 7]: 9.2%
level of TTA, of the total fatty acids [1, 7]: 2.4%
conversion of C22 substrate to TPA [1, 8]: 43.9%
level of TPA, of the total fatty acids [1, 8]: 3.82%

B2: HSELO1: human elongase from liver cDNA (SEQ ID NO:3), expressed in yeast from pRAE-58-A1 (protein, listed as Homo sapiens)
chain: MEHFDASLSTYFKALLGPRDTRVKGWFLLDNYIPTFICSVIYLLIVWLGPKYMRNKQPFSCRGILVVYNLGLTLLSLYMFCELVTGVWEGKYNFFCQGTRTAGESDMKIIRVLWWYYFSKLIEFMDTFFFILRKNNHQITVLHVYHHASMLNIWWFVMNWVPCGHSYFGATLNSFIHVLMYSYYGLSSVPSMRPYLWWKKYITQGQLLQFVLTIIQTSCGVIWPCTFPLGWLYFQIGYIISLIALFTNFYIQTYNKKGASRRKDHLKDHQNGSVAAVNGHTNSFSPLENNVKPRKLRKD
level of ADA, of total fatty acids ([2]; 25 μM AA, 24 hours at 30° C., FIG. 45): 1.21%
conversion of AA to ADA ([2]; 25 μM AA, FIG. 52): 27.5%
level of ADA, of the total fatty acids ([2]; 25 μM AA, FIG. 52): 2.91%
conversion of AA to ADA ([2]; 25 μM AA, FIG. 53B): 27.1%
level of ADA, of the total fatty acids ([2]; 25 μM AA, FIG. 53B): 2.14%
conversion of ALA to ETrA ([2]; 25 μM ALA, FIG. 53C): 22.2%
level of ETrA, of the total fatty acids ([2]; 25 μM ALA, FIG. 53C): 1.03%
conversion of EPA to DPA ([2]; 25 μM EPA, FIG. 52): 70.3%
level of DPA, of the total fatty acids ([2]; 25 μM EPA, FIG. 52): 4.82%
conversion of EPA to DPA ([2]; 25 μM EPA, FIG. 53C): 39.5%
level of DPA, of the total fatty acids ([2]; 25 μM EPA, FIG. 53C): 3.19%
level of DGLA, of total fatty acids ([2]; 25 μM GLA, 24 hours at 30° C., FIG. 45): 2.75%
conversion of GLA to DGLA ([2]; 25 μM GLA, FIG. 52): 62.4%
level of DGLA, of the total fatty acids ([2]; 25 μM GLA, FIG. 52): 3.95%
conversion of GLA to DGLA ([2]; 25 μM GLA, FIG. 53B): 51.4%
level of DGLA, of the total fatty acids ([2]; 25 μM GLA, FIG. 53B): 2.46%
conversion of LA to C20:2n-6 ([2]; 25 μM LA, FIG. 53B): 13.2%
level of C20:2n-6, of the total fatty acids ([2]; 25 μM LA, FIG. 53B): 0.74%
conversion of STA to ETA ([2]; 25 μM STA, FIG. 53C): 61.9%
level of ETA, of the total fatty acids ([2]; 25 μM STA, FIG. 53C): 2.24%
conversion of OA to EA ([2]; 25 μM of exogenous OA): 8.9%
accumulation of EA, of the total fatty acids ([2]; 25 μM of exogenous OA, FIG. 51): 2.25%
elongation of monounsaturated fatty acids OA and EA ([2]; 25 μM substrate): also not involved
elongation of saturated fatty acids PA, SA, ARA, BA ([2]; 25 μM substrate, FIG. 53A): not involved
elongation of n-6 PUFAs DGLA or ADA ([2]; 25 μM substrate, FIG. 53B): but not DGLA or ADA
elongation of n-3 PUFA DPA ([2]; 25 μM substrate, FIG. 53C): but not DPA
conversion of AA to ADA ([2]; 100 μM AA, FIG. 52): 15.7%
level of ADA, of the total fatty acids ([2]; 100 μM AA, FIG. 52): 3.90%
conversion of EPA to DPA ([2]; 100 μM EPA, FIG. 52): 45.7%
level of DPA, of the total fatty acids ([2]; 100 μM EPA, FIG. 52): 11.50%
conversion of GLA to DGLA ([2]; 100 μM GLA, FIG. 52): 39.8%
level of DGLA, of the total fatty acids ([2]; 100 μM GLA, FIG. 52): 9.56%
decrease of overall conversion rate ([2]; 100 μM versus 25 μM of substrates GLA, AA, EPA): at least 35%
OA, of the total fatty acids ([2]; PTA added as a substrate, not an increase, OA was 25-31% in all samples): 12.76%
endogenous conversion of C16:1n-7 to C18:1n-7 ([2]; endogenous substrate): 20.4%
endogenous conversion of C18:1n-7 to C20:1n-7 ([2]; endogenous substrate): 58.1%
conversion of AA to ADA ([2]; substrate AA, FIG. 51): 42.7%
level of ADA, of the total fatty acids ([2]; substrate AA, FIG. 51): 6.26%
conversion of ALA to ETrA ([2]; substrate ALA, FIG. 51): 30.4%
level of ETrA, of the total fatty acids ([2]; substrate ALA, FIG. 51): 6.15%
conversion of EPA to DPA ([2]; substrate EPA, FIG. 51): 71.7%
level of DPA, of the total fatty acids ([2]; substrate EPA, FIG. 51): 6.66%
conversion of GLA to DGLA ([2]; substrate GLA, FIG. 51): 78.3%
level of DGLA, of the total fatty acids ([2]; substrate GLA, FIG. 51): 7.29%
conversion of STA to ETA ([2]; substrate STA, FIG. 51): 79.2%
level of ETA, of the total fatty acids ([2]; substrate STA, FIG. 51): 10.06%
